The chains are these.
B1: MED24 (natural protein, Mus musculus (endogenous in CH12 cells), UniProt Q99K74 1-987, looked up)
chain: MKVVNLKQAILQAWKERWSDYQWAINMKKFFPKGATWDILNLAEALLEQAMIGPSPNPLILSYLKYAISSQMVSCSSVLTAISKFDDFSRDLCVQALLDIMDMFCDRLSCHGKAEECIGLCRALLSALHWLLRCTAASAERLQEGLEAGTPAPGEKQLALCLQCLEKTLSSTKNRALLHIAKLEEASSWTAIEHSLLKLGEILANLSNPQLRSQAERCGTLIRSIPSMLSVHSEQLHKTGFPTIHALILLEGTMNLTGEMQPLVEQLMMVKRMQHIPTPLFVLEIWKACFVGLIESPEGTQELKWTAFTYLKIPQVLVKLKKYFHGEKDFTEDVNCAFEFLLKLTPLLDKADQRCNCDCTNFLLQECNKQGLLSEVNFASLVGKRTADRDPQLKSSENANIQPNPGLILRAEPTVTNILKTMDADHSKSPEGLLGVLGHMLSGKSLDLLLAAAAATGKLKSFARKFINLNEFTTHGSGESTKTASVRALLFDISFLMLCHVAQTYGSEVILSESSSGEEVPFFETWMQTCMPEEGKILNPDHPCFRPDSTKVESLVALLNNSSEMKLVQMKWHEACLSISAAILEILNAWENGVLAFESIQKITDNIKGKVCSLAVCAVAWLVAHVRMLGLDEREKSLQMIRQLAGPLYSENTLQFYNERVVIMNSILEHMCADVLQQTATQIKFPSTGVDTMPYWNLLPPKRPIKEVLTDIFAKVLEKGWVDSRSIHILDTLLHMGGVYWFCNNLIKELLKETRKEHTLRAVQLLYSIFCLDMQQVTLVLLGHILPGLLTDSSKWHSLMDPPGTALAKLAVWCALSSYSSHKGQASSRQKKRHREDIEDYVSLFPVEDMQPSKLMRLLSSSDDDANILSSPTDRSMNSSLSASQLHTVNMRDPLNRVLANLFLLISSILGSRTAGPHTQFVQWFMEECVGCLEQDSRGSILQFMPFTTVSELVKVSAMSSPKVVLAITDLSLPLGRQVAAKAIAAL

Holding throughout (experiment): cryo-EM structure
One test has as its target MED1 (Mus musculus (endogenous in CH12 cells), UniProt Q925J9 1-1575).
For another test, the target named is T1, MED23 (Mus musculus (endogenous in CH12 cells), UniProt Q80YQ2 1-1367).
T1 sequence (looked up): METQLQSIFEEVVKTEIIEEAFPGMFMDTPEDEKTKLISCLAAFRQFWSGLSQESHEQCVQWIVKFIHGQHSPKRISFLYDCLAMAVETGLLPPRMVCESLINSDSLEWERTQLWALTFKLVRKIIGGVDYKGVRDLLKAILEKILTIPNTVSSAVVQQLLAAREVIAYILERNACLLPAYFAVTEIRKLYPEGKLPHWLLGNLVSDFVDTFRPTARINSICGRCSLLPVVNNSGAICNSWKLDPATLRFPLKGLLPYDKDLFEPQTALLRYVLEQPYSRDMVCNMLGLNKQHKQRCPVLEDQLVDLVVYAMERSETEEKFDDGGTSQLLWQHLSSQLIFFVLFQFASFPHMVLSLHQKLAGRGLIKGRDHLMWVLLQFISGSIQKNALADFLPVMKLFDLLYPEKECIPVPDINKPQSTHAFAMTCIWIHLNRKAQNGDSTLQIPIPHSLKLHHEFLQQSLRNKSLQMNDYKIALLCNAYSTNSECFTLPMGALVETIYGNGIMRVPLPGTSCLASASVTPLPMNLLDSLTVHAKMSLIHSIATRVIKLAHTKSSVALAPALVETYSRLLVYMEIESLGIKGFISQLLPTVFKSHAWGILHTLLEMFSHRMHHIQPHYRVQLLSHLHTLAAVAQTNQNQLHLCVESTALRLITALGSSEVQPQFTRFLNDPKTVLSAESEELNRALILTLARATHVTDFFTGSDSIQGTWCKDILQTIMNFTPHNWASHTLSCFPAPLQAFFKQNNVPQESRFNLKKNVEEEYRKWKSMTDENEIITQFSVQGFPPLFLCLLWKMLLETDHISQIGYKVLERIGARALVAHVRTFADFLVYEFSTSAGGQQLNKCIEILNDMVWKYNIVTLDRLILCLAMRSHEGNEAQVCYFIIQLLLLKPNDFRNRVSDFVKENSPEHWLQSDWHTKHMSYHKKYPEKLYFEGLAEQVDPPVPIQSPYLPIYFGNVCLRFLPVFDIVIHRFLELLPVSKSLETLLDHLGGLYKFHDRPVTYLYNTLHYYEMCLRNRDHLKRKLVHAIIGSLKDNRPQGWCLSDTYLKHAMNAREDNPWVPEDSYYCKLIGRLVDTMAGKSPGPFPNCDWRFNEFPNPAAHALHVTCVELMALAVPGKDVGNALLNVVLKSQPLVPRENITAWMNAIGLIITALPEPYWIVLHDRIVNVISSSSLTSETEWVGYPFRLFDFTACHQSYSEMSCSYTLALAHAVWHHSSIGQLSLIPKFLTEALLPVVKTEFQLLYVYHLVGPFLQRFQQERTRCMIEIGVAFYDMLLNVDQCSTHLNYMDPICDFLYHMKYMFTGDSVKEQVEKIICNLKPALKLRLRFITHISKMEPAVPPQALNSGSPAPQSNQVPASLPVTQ

In the test “MED24” the target is B1.
Another test deals with T2, MED27 (Mus musculus (endogenous in CH12 cells), UniProt Q9DB40 1-311).
T2 sequence (looked up): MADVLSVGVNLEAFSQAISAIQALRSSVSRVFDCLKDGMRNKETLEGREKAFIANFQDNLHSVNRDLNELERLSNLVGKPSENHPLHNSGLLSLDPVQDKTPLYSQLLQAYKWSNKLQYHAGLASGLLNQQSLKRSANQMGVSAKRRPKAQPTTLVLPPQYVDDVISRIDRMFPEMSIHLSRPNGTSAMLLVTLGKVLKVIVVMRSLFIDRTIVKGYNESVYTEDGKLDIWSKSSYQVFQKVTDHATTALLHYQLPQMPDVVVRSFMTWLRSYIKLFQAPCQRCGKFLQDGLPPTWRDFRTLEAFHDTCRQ

In the next test the target is T3, MED17 (Mus musculus (endogenous in CH12 cells), UniProt Q8VCD5 1-649).
T3 sequence (looked up): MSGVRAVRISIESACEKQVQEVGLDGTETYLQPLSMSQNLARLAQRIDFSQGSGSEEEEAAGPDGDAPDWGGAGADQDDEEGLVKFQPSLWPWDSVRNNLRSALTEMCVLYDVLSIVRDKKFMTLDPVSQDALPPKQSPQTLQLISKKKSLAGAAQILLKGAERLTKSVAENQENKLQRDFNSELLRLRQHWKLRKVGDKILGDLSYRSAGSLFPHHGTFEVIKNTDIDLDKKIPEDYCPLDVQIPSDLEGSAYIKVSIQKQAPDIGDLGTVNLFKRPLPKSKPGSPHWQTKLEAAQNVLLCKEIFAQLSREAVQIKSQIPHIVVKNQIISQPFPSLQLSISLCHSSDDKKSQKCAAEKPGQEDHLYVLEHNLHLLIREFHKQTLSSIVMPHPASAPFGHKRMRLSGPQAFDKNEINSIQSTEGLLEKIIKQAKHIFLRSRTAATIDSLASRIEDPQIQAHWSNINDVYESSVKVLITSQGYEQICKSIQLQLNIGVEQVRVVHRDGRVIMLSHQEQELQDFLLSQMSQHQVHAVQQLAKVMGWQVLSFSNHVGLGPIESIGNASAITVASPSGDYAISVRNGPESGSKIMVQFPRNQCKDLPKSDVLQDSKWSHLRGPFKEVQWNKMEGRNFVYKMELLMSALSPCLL

Chain of MED1 (Q925J9 whole entry): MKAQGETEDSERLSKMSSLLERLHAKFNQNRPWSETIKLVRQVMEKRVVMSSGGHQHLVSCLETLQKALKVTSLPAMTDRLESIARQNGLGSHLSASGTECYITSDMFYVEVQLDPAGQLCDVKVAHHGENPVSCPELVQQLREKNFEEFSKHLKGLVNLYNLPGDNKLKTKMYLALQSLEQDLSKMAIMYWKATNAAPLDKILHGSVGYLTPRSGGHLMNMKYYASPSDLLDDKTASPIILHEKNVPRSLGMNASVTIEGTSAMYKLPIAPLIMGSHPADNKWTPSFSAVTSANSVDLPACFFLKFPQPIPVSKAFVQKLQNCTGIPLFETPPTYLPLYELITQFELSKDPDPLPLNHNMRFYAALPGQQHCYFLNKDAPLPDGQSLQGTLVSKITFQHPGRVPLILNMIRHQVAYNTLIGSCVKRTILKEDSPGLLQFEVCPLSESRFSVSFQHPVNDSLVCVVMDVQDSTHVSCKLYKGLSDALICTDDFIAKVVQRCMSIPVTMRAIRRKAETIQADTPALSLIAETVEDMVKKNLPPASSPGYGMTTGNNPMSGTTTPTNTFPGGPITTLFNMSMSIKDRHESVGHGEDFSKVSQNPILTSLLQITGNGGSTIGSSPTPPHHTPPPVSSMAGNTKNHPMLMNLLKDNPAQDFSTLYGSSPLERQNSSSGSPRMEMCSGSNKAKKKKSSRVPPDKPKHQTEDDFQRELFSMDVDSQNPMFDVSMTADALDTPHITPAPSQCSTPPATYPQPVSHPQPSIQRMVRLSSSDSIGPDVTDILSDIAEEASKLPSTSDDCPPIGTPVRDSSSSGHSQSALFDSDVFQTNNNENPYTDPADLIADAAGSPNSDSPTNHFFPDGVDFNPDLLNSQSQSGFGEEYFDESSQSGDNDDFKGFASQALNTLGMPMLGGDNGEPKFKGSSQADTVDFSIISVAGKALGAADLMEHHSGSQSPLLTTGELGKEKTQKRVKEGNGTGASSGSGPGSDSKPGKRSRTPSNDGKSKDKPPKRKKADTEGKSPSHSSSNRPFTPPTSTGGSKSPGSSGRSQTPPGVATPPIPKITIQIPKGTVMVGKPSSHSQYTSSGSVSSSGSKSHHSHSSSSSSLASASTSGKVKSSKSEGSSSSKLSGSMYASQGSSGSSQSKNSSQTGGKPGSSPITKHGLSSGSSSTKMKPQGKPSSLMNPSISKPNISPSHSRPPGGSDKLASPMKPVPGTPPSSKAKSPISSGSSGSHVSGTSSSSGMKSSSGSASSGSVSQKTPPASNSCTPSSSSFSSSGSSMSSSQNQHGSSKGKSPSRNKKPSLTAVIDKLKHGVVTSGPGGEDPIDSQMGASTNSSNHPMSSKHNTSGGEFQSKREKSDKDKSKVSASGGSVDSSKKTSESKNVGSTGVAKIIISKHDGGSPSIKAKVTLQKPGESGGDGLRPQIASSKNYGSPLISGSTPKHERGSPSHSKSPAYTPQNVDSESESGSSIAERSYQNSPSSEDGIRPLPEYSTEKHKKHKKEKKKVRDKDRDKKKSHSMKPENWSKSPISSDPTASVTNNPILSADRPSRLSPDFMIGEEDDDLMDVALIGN

In the case of B1, the binding result in the test with MED1 is recorded as “binds”.

B2: MED4 (natural protein, Mus musculus (endogenous in CH12 cells), UniProt Q9CQA5 1-270, looked up)
chain: MAASSSGEKEKERMGGVSGMAGLGSTRERLLSALEDLEVLSRELIEMLAISRNQKLLQLEEENQVLELLIHRDGDFQELMKLALNQGKVHHEMQALEKEVEKRDSDIQQLQKQLKEAEQILATAVYQAKEKLKSIEKARKGAISSEEIIKYAHRISASNAVCAPLTWVPGDPRRPYPTDLEMRSGLLGQMNNPSTSGVNGHLPGDALAAGRLPDVLAPQYPWQSNDMSVNMLPPNHSSDFLLEPPGHNKENEDDVEVMSTDSSSSSSDSD
Turning to B2, in the test with MED1, the binding result is “binds”.

B3: MED16 (natural protein, Mus musculus (endogenous in CH12 cells), UniProt Q6PGF3 1-828, looked up)
chain: MDLAYVCEWEKWAKSTYCPSLPLACAWSCRNLIAFTTDLRNDDQDLTHMIHILDTEHPWEVHSVSSGHSEAITCLEWDQSGSRLLSADADGQIKCWSMADHLANSWESSVGSQVEGDPIVALSWLHNGVKLALHVEKSGASSFGEKFSRVKFSPSLTLFGGKPMEGWIAVTVSGLVTVSLLKPSGQVLTSTESLCRLRGRVALADIAFTGGGNIVVAAADGSSASPVKFYKVCVSVVSEKCRIDTEILPSLFMRCTTDPNRKDRFPAITHLKFLARDMSEQVLLCASSQTSSLVECWSLRKEGLPVNNIFQQISPVVGDKQPMILKWRILSATNDLDRVSAVALPKLPISLTNTDLKVASDTQFYPGLGLALAFQDGSVHMVHRLSLQTMAVFYSSAPRSLDEPALKRPRTTCPAVHFKAMQLSWTSLALVGIDNHGKLSMLRISPSLGHPLEPKLALQHLLFLLEYCMVTGYDWWDILLHVQPGMVQSLVERLHEEYTRQKPALQQVLSTRILAMKASLCKLSPCTVARVCDYHTKLFLMAITSTLKSLLRPHFLNTPDKSPGDRLAEICAKITDVDIDKVMINLKTEEFVLDMNTLQALQQLLQWVGDFVLYLLVSLPNQGSPLRPGHSFLRDGTSLGMLRELMVVIRIWGLLKPSCLPVYTATSDTQDSMSLLFRLLTKLWICCRDEGAASEPDEGLVDECCLLPSQLLVPNLDWLPASDGLVSRLQPKQPLRLRFGRAPTLPSSTSTLQLDGLTRAPGQPKIDHLRRLHLGAYPTEECKACTRCGCVTMLKSPNKTTAVTQWEQRWIKNCLCGGLWRRVPLSCS
For the molecule B3, the binding result in the test with MED23 and with MED24 was “binds” throughout.

B4: MED20 (natural protein, Mus musculus (endogenous in CH12 cells), UniProt Q9R0X0 1-212, looked up)
chain: MGVTCVSQMPVAEGKSLQQTVELLTKKLEMLGAEKQGTFCVDCETYHTAASTLGSQGQAGKLMYVMHNSEYPLSCFALFENGPCLIADTNFDVLMVKLKGFFQSAKASKIETRGTRYQYCDFLVKVGTVTMGPSARGISVEVEYGPCVVASDCWSLLLEFLQSFLGSHAPGAPTVFGNRHDAVYGPADTMIQYMELFNKIRKQQQVPVAGIR
On to B4, for which the binding result with MED27 and in the test with MED17 was “binds” throughout.

These data come from doi:10.1101/2020.10.05.326918 (bioRxiv, 2020).
